Experimental findings from the array DNA melting data of Ke et al. are described below.

A short description of the data set: melting temperature; melt of duplexes. As to conditions: sodium 0.0675 M; strand 1 µM.
With “CGACGTGCTTCATGTGCTG+CAGCACATGTGGCACGTCG ((((((((..(((((((((+)))))))))..))))))))”, the midpoint of thermal melting (Tm) was 54.8 °C.
Next, “CGACGTGCGGAATGTGCTG+CAGCACATACAGCACGTCG ((((((((.(.((((((((+)))))))).).))))))))”: 54.9 °C.
Next, “CGACGTGCAACATGTGCTG+CAGCACATCTGGCACGTCG ((((((((.(.((((((((+)))))))).).))))))))”: 48.9 °C; “CGACGTGCCTGATGTGCTG+CAGCACATCCTGCACGTCG ((((((((..(((((((((+)))))))))..))))))))”: 53.1 °C; “CGACGTGCATCATGTGCTG+CAGCACATGGAGCACGTCG ((((((((..(((((((((+)))))))))..))))))))”: 55.5 °C.
With “CGACGTGCTCTATGTGCTG+CAGCACATACGGCACGTCG ((((((((..(((((((((+)))))))))..))))))))” the figure was 49.7 °C; with “CGACGTGCGGGATGTGCTG+CAGCACATATAGCACGTCG ((((((((...((((((((+))))))))...))))))))”, 52.8 °C.
Regarding “CGACGTGCTTAATGTGCTG+CAGCACATTTGGCACGTCG ((((((((..(((((((((+)))))))))..))))))))”, the midpoint of thermal melting (Tm) came to 53.4 °C.
Next, “CGACGTGCTCTATGTGCTG+CAGCACATTTGGCACGTCG ((((((((...((((((((+))))))))...))))))))”: 50.1 °C.
With “CGACGTGCGACATGTGCTG+CAGCACATCTGGCACGTCG ((((((((.(.((((((((+)))))))).).))))))))” the figure was 49 °C; with “CGACGTGCATTATGTGCTG+CAGCACATTACGCACGTCG ((((((((.(.((((((((+)))))))).).))))))))”, 49.3 °C.
With “CGACGTGCCTTATGTGCTG+CAGCACATCTCGCACGTCG ((((((((...((((((((+))))))))...))))))))” the figure was 46.6 °C; with “CGACGTGCTCCATGTGCTG+CAGCACATATTGCACGTCG ((((((((...((((((((+))))))))...))))))))”, 47.9 °C.
With “CGACGTGCCCAATGTGCTG+CAGCACATGCTGCACGTCG ((((((((...((((((((+))))))))...))))))))”, the Tm worked out at 47.8 °C.
Next, “CGACGTGCATGATGTGCTG+CAGCACATAGTGCACGTCG (((((((((..((((((((+))))))))..)))))))))”: 49.6 °C; “CGACGTGCTAAATGTGCTG+CAGCACATTAGGCACGTCG ((((((((..(((((((((+)))))))))..))))))))”: 53.8 °C; “CGACGTGCGTAATGTGCTG+CAGCACATCGGGCACGTCG ((((((((...((((((((+))))))))...))))))))”: 49.4 °C.
Consider “CGACGTGCCGAATGTGCTG+CAGCACATGAGGCACGTCG (((((((((..((((((((+))))))))..)))))))))”, for which the Tm was 63.8 °C.
Regarding “CGACGTGCATCATGTGCTG+CAGCACATACTGCACGTCG (((((((((..((((((((+))))))))..)))))))))”, the Tm was 49.7 °C.
Next, “CGACGTGCGCCATGTGCTG+CAGCACATATTGCACGTCG ((((((((...((((((((+))))))))...))))))))”: 47.3 °C.
Take “CGACGTGCATGATGTGCTG+CAGCACATTCAGCACGTCG ((((((((...((((((((+))))))))...))))))))”: the Tm is 51.1 °C.
Next, “CGACGTGCCATATGTGCTG+CAGCACATTGCGCACGTCG ((((((((...((((((((+))))))))...))))))))”: 51.5 °C; “CGACGTGCCCTATGTGCTG+CAGCACATTGTGCACGTCG ((((((((.(.((((((((+)))))))).).))))))))”: 47.8 °C.
With “CGACGTGCCCGATGTGCTG+CAGCACATTGAGCACGTCG ((((((((.(.((((((((+)))))))).).))))))))” the figure was 53.6 °C; with “CGACGTGCGAAATGTGCTG+CAGCACATCGGGCACGTCG ((((((((...((((((((+))))))))...))))))))”, 48.6 °C; with “CGACGTGCGACATGTGCTG+CAGCACATCTCGCACGTCG ((((((((((.((((((((+)))))))).))))))))))”, 55.4 °C.
With “CGACGTGCGGCATGTGCTG+CAGCACATCGAGCACGTCG ((((((((...((((((((+))))))))...))))))))” the figure was 53.6 °C; with “CGACGTGCGCGATGTGCTG+CAGCACATTTGGCACGTCG ((((((((...((((((((+))))))))...))))))))”, 49.7 °C; with “CGACGTGCTACATGTGCTG+CAGCACATATGGCACGTCG ((((((((.(.((((((((+)))))))).).))))))))”, 51.3 °C.
“CGACGTGCTAAATGTGCTG+CAGCACATCAGGCACGTCG ((((((((...((((((((+))))))))...))))))))”: the melting temperature (Tm) is 50.9 °C.
Next, “CGACGTGCTATATGTGCTG+CAGCACATCCGGCACGTCG ((((((((...((((((((+))))))))...))))))))”: 49 °C; “CGACGTGCCTTATGTGCTG+CAGCACATTAAGCACGTCG ((((((((.(.((((((((+)))))))).).))))))))”: 49.8 °C.
Next, “CGACGTGCTGTATGTGCTG+CAGCACATATAGCACGTCG (((((((((.(((((((((+))))))))).)))))))))”: 57 °C; “CGACGTGCTTTATGTGCTG+CAGCACATCTCGCACGTCG ((((((((...((((((((+))))))))...))))))))”: 46.5 °C.
Take “CGACGTGCTGCATGTGCTG+CAGCACATGGTGCACGTCG ((((((((..(((((((((+)))))))))..))))))))”: the Tm came out at 54.2 °C.
Next, “CGACGTGCGTGATGTGCTG+CAGCACATCGCGCACGTCG (((((((((.(((((((((+))))))))).)))))))))”: 63.6 °C; “CGACGTGCTATATGTGCTG+CAGCACATTCAGCACGTCG (((((((((..((((((((+))))))))..)))))))))”: 51 °C; “CGACGTGCTTTATGTGCTG+CAGCACATTGTGCACGTCG ((((((((...((((((((+))))))))...))))))))”: 45.1 °C.
For “CGACGTGCATTATGTGCTG+CAGCACATATTGCACGTCG (((((((((.(((((((((+))))))))).)))))))))”, the melting temperature (Tm) is 54.5 °C.
Consider “CGACGTGCTTCATGTGCTG+CAGCACATCTAGCACGTCG (((((((((..((((((((+))))))))..)))))))))”, for which the melting temperature (Tm) was 50.3 °C.
Next, “CGACGTGCGTTATGTGCTG+CAGCACATAAAGCACGTCG ((((((((.((((((((((+)))))))))).))))))))”: 56 °C; “CGACGTGCCCGATGTGCTG+CAGCACATCTGGCACGTCG (((((((((.(((((((((+))))))))).)))))))))”: 59.1 °C.
Turning to “CGACGTGCAGTATGTGCTG+CAGCACATCCTGCACGTCG ((((((((((.((((((((+)))))))).))))))))))”, the Tm is 56.3 °C.
Next, “CGACGTGCAGTATGTGCTG+CAGCACATTTCGCACGTCG ((((((((...((((((((+))))))))...))))))))”: 49.7 °C; “CGACGTGCTGGATGTGCTG+CAGCACATCTTGCACGTCG ((((((((..(((((((((+)))))))))..))))))))”: 56.6 °C; “CGACGTGCTCTATGTGCTG+CAGCACATGGAGCACGTCG ((((((((((.((((((((+)))))))).))))))))))”: 59.7 °C.
With “CGACGTGCCAAATGTGCTG+CAGCACATGAGGCACGTCG (((((((((..((((((((+))))))))..)))))))))” the figure was 57.3 °C; with “CGACGTGCATTATGTGCTG+CAGCACATAGCGCACGTCG ((((((((..(((((((((+)))))))))..))))))))”, 49.4 °C.
For “CGACGTGCCACATGTGCTG+CAGCACATAGGGCACGTCG (((((((((..((((((((+))))))))..)))))))))”, the midpoint of thermal melting (Tm) was determined as 54.7 °C.
With “CGACGTGCAGGATGTGCTG+CAGCACATAATGCACGTCG (((((((((..((((((((+))))))))..)))))))))”, the Tm is 55.2 °C.
With “CGACGTGCTAGATGTGCTG+CAGCACATCACGCACGTCG ((((((((..(((((((((+)))))))))..))))))))” the figure was 54.3 °C.
Next, “CGACGTGCAAAATGTGCTG+CAGCACATACTGCACGTCG (((((((((..((((((((+))))))))..)))))))))”: 50.4 °C; “CGACGTGCCTAATGTGCTG+CAGCACATTGAGCACGTCG ((((((((..(((((((((+)))))))))..))))))))”: 52.7 °C; “CGACGTGCCACATGTGCTG+CAGCACATACCGCACGTCG ((((((((...((((((((+))))))))...))))))))”: 46.7 °C.
With “CGACGTGCTCTATGTGCTG+CAGCACATACCGCACGTCG ((((((((..(((((((((+)))))))))..))))))))” the figure was 48.5 °C.
As to “CGACGTGCGCCATGTGCTG+CAGCACATCGGGCACGTCG ((((((((.(.((((((((+)))))))).).))))))))”, the Tm was found to be 51.2 °C.
On to “CGACGTGCACGATGTGCTG+CAGCACATGAGGCACGTCG ((((((((...((((((((+))))))))...))))))))”, for which the Tm is 48.4 °C.
Next, “CGACGTGCACTATGTGCTG+CAGCACATTGGGCACGTCG ((((((((.(.((((((((+)))))))).).))))))))”: 53.3 °C; “CGACGTGCATCATGTGCTG+CAGCACATTTTGCACGTCG (((((((((..((((((((+))))))))..)))))))))”: 50.7 °C.
In the case of “CGACGTGCAGGATGTGCTG+CAGCACATGTGGCACGTCG ((((((((...((((((((+))))))))...))))))))”, the Tm came out at 50.9 °C.
With “CGACGTGCACTATGTGCTG+CAGCACATCGGGCACGTCG ((((((((.(.((((((((+)))))))).).))))))))” the figure was 51.1 °C.
Next, “CGACGTGCACCATGTGCTG+CAGCACATTTGGCACGTCG ((((((((...((((((((+))))))))...))))))))”: 44.6 °C.
With “CGACGTGCTCCATGTGCTG+CAGCACATGGTGCACGTCG ((((((((.((((((((((+)))))))))).))))))))” the figure was 58.9 °C.
In the case of “CGACGTGCGGGATGTGCTG+CAGCACATCCGGCACGTCG ((((((((.((((((((((+)))))))))).))))))))”, the melting temperature (Tm) worked out at 61.6 °C.
For “CGACGTGCCTGATGTGCTG+CAGCACATATGGCACGTCG (((((((((..((((((((+))))))))..)))))))))”, the midpoint of thermal melting (Tm) came to 55.8 °C.
For the substance “CGACGTGCTACATGTGCTG+CAGCACATGAAGCACGTCG (((((((((.(((((((((+))))))))).)))))))))”, the Tm was 58.3 °C.
